In assay [1] the target is mAb1 WT-AAA (human). As to the kind of experiment: mass photometry; 200 nM mAb1 Fc variant pre-incubated with 4000 nM PRYSPRY domain, analysed at a 1:250 dilution; PBS pH 7.4, room temperature.
Assay [2] has as its target anti-AAV2 capsid antibody A20 WT (bivalent, human IgG1 Fc WT) (human). The assay is described as follows: SPR; Biacore T200, C1 chip, 25 °C, HBS-EP+ (10 mM HEPES, 150 mM NaCl, 3 mM EDTA, 0.05% P20, pH 7.4); antibody Fc variants captured via anti-human Fab-kappa nanobody (about 60 RU), Fc only variants amine-coupled (60-80 RU), cytokine-Fc fusions captured via anti-PGLALA F(ab')2 (35-40 RU); PRYSPRY domain injected in five two-fold dilutions from 500, 1000 or 2000 nM; global fit, Langmuir 1:1, affinity mode.

In the next assay the target is Ustekinumab (human). The assay is described as above.
For the next assay, the target named is mAb1 YTE (human). The assay is described as follows: SPR; antibody Fc variants captured via CaptureSelect Human Fab-kappa ligand on a C1 chip (approx. 60 RU); PRYSPRY injected, five concentrations, two-fold series; 25°C, HBS-EP+ pH 7.4; 1:1 Langmuir fit. On the technique in general: In SPR one partner is held on a chip, and binding of the other changes the refractive index at the surface.

Assay [3] concerns the target mAb1 WT-AAA (human). Described as above.
A further assay concerns the target mAb1 HH (human). The assay is described as above.

Consider 1 substance from article PMC11210195.

Usually stoichiometry N stands for the number of molecules, sites or subunits per partner or assembly. What is called koff is a measure of how fast the partners let go of each other. The term kon denotes a measure of how fast the partners come together. A higher kon goes with faster complex formation.

anti-AAV2 capsid antibody A20 WT (bivalent, human IgG1 Fc WT) (human), sequence (heavy, as listed by the source, chain 1 of 2): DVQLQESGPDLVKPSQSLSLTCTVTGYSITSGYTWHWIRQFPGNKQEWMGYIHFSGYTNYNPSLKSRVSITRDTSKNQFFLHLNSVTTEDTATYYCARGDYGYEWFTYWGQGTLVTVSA
anti-AAV2 capsid antibody A20 WT (bivalent, human IgG1 Fc WT) (human), sequence (light, as listed by the source, chain 2 of 2): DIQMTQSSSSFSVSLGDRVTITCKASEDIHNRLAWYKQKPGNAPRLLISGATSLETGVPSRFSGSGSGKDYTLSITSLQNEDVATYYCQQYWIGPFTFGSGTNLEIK
Ustekinumab (human), sequence (heavy, as listed by the source, chain 1 of 2): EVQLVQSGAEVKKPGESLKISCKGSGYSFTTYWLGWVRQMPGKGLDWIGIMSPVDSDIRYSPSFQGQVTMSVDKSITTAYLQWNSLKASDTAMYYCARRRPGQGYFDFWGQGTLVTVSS
Ustekinumab (human), sequence (light, as listed by the source, chain 2 of 2): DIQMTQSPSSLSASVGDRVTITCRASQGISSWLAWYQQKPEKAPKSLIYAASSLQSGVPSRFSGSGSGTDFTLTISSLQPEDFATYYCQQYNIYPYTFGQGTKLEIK
TRIM21 PRYSPRY domain, sequence (P19474 277-475): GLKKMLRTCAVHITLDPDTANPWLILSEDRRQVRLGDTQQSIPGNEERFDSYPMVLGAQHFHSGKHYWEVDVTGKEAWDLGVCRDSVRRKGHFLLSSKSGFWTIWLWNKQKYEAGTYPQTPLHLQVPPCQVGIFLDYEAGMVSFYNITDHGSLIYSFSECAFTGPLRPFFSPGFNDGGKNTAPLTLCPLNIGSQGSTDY

Consider “TRIM21 PRYSPRY domain (from UniProt P19474-1 277-475) (domain or fragment)”, for which the stoichiometry N in the assay with mAb1 WT-AAA (human) [1] was 1. In assay [2], this substance showed a Kd of 45.6 nM, a koff of 0.0876 s⁻¹ and a kon of 1.92e+06 M⁻¹ s⁻¹. In the assay with Ustekinumab (human), this substance showed a Kd of 42.3 nM, a koff of 0.104 s⁻¹ and a kon of 2.46e+06 M⁻¹ s⁻¹. In the assay with mAb1 YTE (human), this substance came in with a fold decrease of affinity against mAb1 Fc WT of 1.7 fold and a fold faster off rate against WT of 1.6 fold. In the assay with mAb1 WT-AAA (human) [3], this substance came in with a Kd of 40 nM and a stoichiometry N of 1. Besides, in the assay with mAb1 HH (human), the fold decrease of affinity against mAb1 Fc WT came out at 2.4 fold, the fold faster off rate against WT was determined as 5 fold and the fold faster on rate against WT turned out to be 2 fold.
